Test results as given in the supplement of paper PMC9112550, “Optimization of the antimicrobial peptide Bac7 by deep mutational scanning” (BMC Biology, 2022).

Each sequence was assayed on Escherichia coli TOP10 (assay: shrunken log2 fold change of peptide-encoding DNA abundance (4.5 h post-induction vs induction); higher = less antimicrobial activity (less host growth inhibition)). Conditions: time post-induction: 4.5 h; library: site-saturation at positions 5, 18, 19, 20.
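Note: peptides expressed intracellularly from a pBAD plasmid library in pooled LB shake-flask culture, induced with 0.3% L-arabinose, DNA abundance read by NGS, three biological replicates, DESeq2 with apeglm shrinkage.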

RRIRARPPRLPRPRPRPSEIPRP was tested. Which “shrunken log2 fold change” value did it give?
Its value is -0.00993.

With RRIRARPPRLPRPRPRPSFDPRP as the sequence, how does the “shrunken log2 fold change” value read?
The value was 0.103.

Which “shrunken log2 fold change” value does the source give for RRIRARPPRLPRPRPRPSFSPRP here?
The value was -0.134.

Which “shrunken log2 fold change” value does the source give for RRIRARPPRLPRPRPRPSGGPRP here?
The value was 0.115.

How did the “shrunken log2 fold change” value turn out when RRIRARPPRLPRPRPRPSGYPRP was run?
The value was 0.094.

How did the “shrunken log2 fold change” value turn out when RRIRARPPRLPRPRPRPSLPPRP was run?
Its value is 0.157.

For RRIRARPPRLPRPRPRPSLWPRP, which “shrunken log2 fold change” value is on record?
Its value is 0.974.

With RRIRARPPRLPRPRPRPSNFPRP as the sequence, how does the “shrunken log2 fold change” value read?
The value was -0.221.

RRIRARPPRLPRPRPRPSNRPRP was tested. Which “shrunken log2 fold change” value did it give?
Its value is -0.457.

For RRIRARPPRLPRPRPRPSNVPRP, which “shrunken log2 fold change” value is on record?
Its value is -0.248.

RRIRARPPRLPRPRPRPSPQPRP was tested. Which “shrunken log2 fold change” value did it give?
Its value is 0.554.

With RRIRARPPRLPRPRPRPSQLPRP as the sequence, how does the “shrunken log2 fold change” value read?
The value was 0.262.

With RRIRARPPRLPRPRPRPSQWPRP as the sequence, how does the “shrunken log2 fold change” value read?
Its value is 0.24.

How did the “shrunken log2 fold change” value turn out when RRIRARPPRLPRPRPRPSSNPRP was run?
The value was 1.2.

RRIRARPPRLPRPRPRPSTLPRP was tested. Which “shrunken log2 fold change” value did it give?
Its value is 0.111.

With RRIRARPPRLPRPRPRPSYDPRP as the sequence, how does the “shrunken log2 fold change” value read?
The value was -0.52.

How did the “shrunken log2 fold change” value turn out when RRIRARPPRLPRPRPRPTAAPRP was run?
The value was 1.05.

With RRIRARPPRLPRPRPRPTDVPRP as the sequence, how does the “shrunken log2 fold change” value read?
Its value is 0.141.

For RRIRARPPRLPRPRPRPTDWPRP, which “shrunken log2 fold change” value is on record?
Its value is 0.712.

Which “shrunken log2 fold change” value does the source give for RRIRARPPRLPRPRPRPTECPRP here?
The value was 0.0171.

For RRIRARPPRLPRPRPRPTEHPRP, which “shrunken log2 fold change” value is on record?
The value was 0.46.

For RRIRARPPRLPRPRPRPTEPPRP, which “shrunken log2 fold change” value is on record?
Its value is 0.797.

Which “shrunken log2 fold change” value does the source give for RRIRARPPRLPRPRPRPTEQPRP here?
Its value is 0.184.

For RRIRARPPRLPRPRPRPTFCPRP, which “shrunken log2 fold change” value is on record?
The value was 0.386.

With RRIRARPPRLPRPRPRPTIMPRP as the sequence, how does the “shrunken log2 fold change” value read?
Its value is 0.15.

How did the “shrunken log2 fold change” value turn out when RRIRARPPRLPRPRPRPTLAPRP was run?
Its value is 1.65.

Which “shrunken log2 fold change” value does the source give for RRIRARPPRLPRPRPRPTLMPRP here?
The value was 0.768.

RRIRARPPRLPRPRPRPTNNPRP was tested. Which “shrunken log2 fold change” value did it give?
The value was 0.00693.

Which “shrunken log2 fold change” value does the source give for RRIRARPPRLPRPRPRPTQPPRP here?
The value was 0.228.

Which “shrunken log2 fold change” value does the source give for RRIRARPPRLPRPRPRPTREPRP here?
The value was 0.573.

Which “shrunken log2 fold change” value does the source give for RRIRARPPRLPRPRPRPTRVPRP here?
Its value is 0.343.

How did the “shrunken log2 fold change” value turn out when RRIRARPPRLPRPRPRPTSSPRP was run?
The value was 0.289.

Which “shrunken log2 fold change” value does the source give for RRIRARPPRLPRPRPRPTVIPRP here?
Its value is 0.0535.

Which “shrunken log2 fold change” value does the source give for RRIRARPPRLPRPRPRPTWAPRP here?
The value was 0.621.

With RRIRARPPRLPRPRPRPTWNPRP as the sequence, how does the “shrunken log2 fold change” value read?
Its value is 0.279.

Which “shrunken log2 fold change” value does the source give for RRIRARPPRLPRPRPRPTYCPRP here?
Its value is -0.119.

For RRIRARPPRLPRPRPRPVARPRP, which “shrunken log2 fold change” value is on record?
Its value is 0.647.

With RRIRARPPRLPRPRPRPVDNPRP as the sequence, how does the “shrunken log2 fold change” value read?
The value was 0.0773.

Which “shrunken log2 fold change” value does the source give for RRIRARPPRLPRPRPRPVDSPRP here?
The value was -0.0786.

Which “shrunken log2 fold change” value does the source give for RRIRARPPRLPRPRPRPVESPRP here?
Its value is 0.986.

How did the “shrunken log2 fold change” value turn out when RRIRARPPRLPRPRPRPVHTPRP was run?
Its value is 0.375.

For RRIRARPPRLPRPRPRPVHYPRP, which “shrunken log2 fold change” value is on record?
The value was -0.198.

For RRIRARPPRLPRPRPRPVIEPRP, which “shrunken log2 fold change” value is on record?
The value was 0.362.

RRIRARPPRLPRPRPRPVIFPRP was tested. Which “shrunken log2 fold change” value did it give?
The value was 0.0535.

With RRIRARPPRLPRPRPRPVKDPRP as the sequence, how does the “shrunken log2 fold change” value read?
The value was 0.284.

Which “shrunken log2 fold change” value does the source give for RRIRARPPRLPRPRPRPVLAPRP here?
Its value is 1.18.

How did the “shrunken log2 fold change” value turn out when RRIRARPPRLPRPRPRPVNEPRP was run?
The value was 0.356.

Which “shrunken log2 fold change” value does the source give for RRIRARPPRLPRPRPRPVNIPRP here?
The value was -0.123.

With RRIRARPPRLPRPRPRPVPIPRP as the sequence, how does the “shrunken log2 fold change” value read?
Its value is 0.0735.

RRIRARPPRLPRPRPRPVQIPRP was tested. Which “shrunken log2 fold change” value did it give?
The value was -0.0414.

Which “shrunken log2 fold change” value does the source give for RRIRARPPRLPRPRPRPVRDPRP here?
Its value is 0.315.

For RRIRARPPRLPRPRPRPVRFPRP, which “shrunken log2 fold change” value is on record?
The value was 0.828.

For RRIRARPPRLPRPRPRPVRGPRP, which “shrunken log2 fold change” value is on record?
Its value is 0.945.

How did the “shrunken log2 fold change” value turn out when RRIRARPPRLPRPRPRPVSPPRP was run?
Its value is 0.664.

RRIRARPPRLPRPRPRPVTEPRP was tested. Which “shrunken log2 fold change” value did it give?
Its value is 0.154.

For RRIRARPPRLPRPRPRPVTFPRP, which “shrunken log2 fold change” value is on record?
The value was 0.0573.

For RRIRARPPRLPRPRPRPVTKPRP, which “shrunken log2 fold change” value is on record?
Its value is 0.128.

With RRIRARPPRLPRPRPRPVVPPRP as the sequence, how does the “shrunken log2 fold change” value read?
Its value is 0.496.

Which “shrunken log2 fold change” value does the source give for RRIRARPPRLPRPRPRPVWFPRP here?
Its value is 0.334.

How did the “shrunken log2 fold change” value turn out when RRIRARPPRLPRPRPRPWALPRP was run?
Its value is 0.172.

Which “shrunken log2 fold change” value does the source give for RRIRARPPRLPRPRPRPWEPPRP here?
The value was 0.18.

With RRIRARPPRLPRPRPRPWETPRP as the sequence, how does the “shrunken log2 fold change” value read?
The value was 4.22.

Which “shrunken log2 fold change” value does the source give for RRIRARPPRLPRPRPRPWEYPRP here?
Its value is -0.00494.

How did the “shrunken log2 fold change” value turn out when RRIRARPPRLPRPRPRPWFPPRP was run?
Its value is -0.0966.

How did the “shrunken log2 fold change” value turn out when RRIRARPPRLPRPRPRPWGGPRP was run?
The value was 0.605.

RRIRARPPRLPRPRPRPWLAPRP was tested. Which “shrunken log2 fold change” value did it give?
The value was 0.162.

How did the “shrunken log2 fold change” value turn out when RRIRARPPRLPRPRPRPWLYPRP was run?
Its value is -0.0506.

With RRIRARPPRLPRPRPRPWNAPRP as the sequence, how does the “shrunken log2 fold change” value read?
Its value is -0.124.

Which “shrunken log2 fold change” value does the source give for RRIRARPPRLPRPRPRPWPKPRP here?
Its value is 0.508.

With RRIRARPPRLPRPRPRPWPLPRP as the sequence, how does the “shrunken log2 fold change” value read?
The value was -0.0297.

With RRIRARPPRLPRPRPRPWQEPRP as the sequence, how does the “shrunken log2 fold change” value read?
The value was -0.0122.

With RRIRARPPRLPRPRPRPWQWPRP as the sequence, how does the “shrunken log2 fold change” value read?
The value was -0.00151.

RRIRARPPRLPRPRPRPWRQPRP was tested. Which “shrunken log2 fold change” value did it give?
Its value is 0.0426.

RRIRARPPRLPRPRPRPWRWPRP was tested. Which “shrunken log2 fold change” value did it give?
Its value is 0.451.

With RRIRARPPRLPRPRPRPWSPPRP as the sequence, how does the “shrunken log2 fold change” value read?
The value was 0.138.
